Data as given in patent US20230348605A1 (published 2023).

Experiments:
[1] = target: T1, fibronectin (FN) containing the EIIIB domain, in the ECM of aortic endothelial cells from control/wild type … (mouse, UniProt P11276 33-2477); test: biotinylated NJB2 detected with streptavidin-Alexa488 on endothelial cells and their ECM
T1 construct: whole, on cells; Protein stood in the cell-derived extracellular matrix, not on the cell membrane; also called EIIIB domain of FN
Text: The NJB2 was site-specifically labelled with biotin via sortagging and detected with streptavidin-Alexa488. […] The αEIIIB control was cells stained with mouse monoclonal IgG specific to an epitope in the EIIIB domain of FN. The negative control, C, was unstained cells.

[2] = target: T2, FN-EIIIB in human patient tissue (PDAC stroma; metastases on a tissue array) (human, UniProt P02751 32-2477); test: immunohistochemistry on a multi-organ metastatic tissue array
T2 construct: Endogenous protein in tissue sections; also called EIIIB expressed in human PDAC stroma; stromal FN-EIIIB
Text: To investigate the expression of EIIIB in metastasis samples from multiple patients, we stained a multi-organ tissue array of samples from various metastatic sites derived from 104 patients with NJB2-biotin. […] In parallel, similar results were obtained with a monoclonal anti-EIIIB antibody (AM3, data not shown). These metastases to multiple organs (21 distinct sites) were derived from 17 different primary sites, including rectum, pancreas, lung, ovary, stomach and thyroid among others (Table 4). Among the EIIIB-positive biopsies, ~32% were metastases to the lymph nodes at the metastatic sites (Table 4). This wide expression of EIIIB at metastatic sites in multiple organs and derived from multiple types of primary tumors further broadens the potential applications of NJB2-based imaging and therapeutic applications.

[3] = target: T3, EIIIB domain of fibronectin; test: BLI
T3 construct: domain: EIIIB domain; also called recombinantly expressed EIIIB domain of FN
T3 sequence (P02751 1271-1359): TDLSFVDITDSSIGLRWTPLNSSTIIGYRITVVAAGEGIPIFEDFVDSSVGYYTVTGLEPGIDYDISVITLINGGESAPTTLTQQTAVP

T1 sequence (P11276 33-2477): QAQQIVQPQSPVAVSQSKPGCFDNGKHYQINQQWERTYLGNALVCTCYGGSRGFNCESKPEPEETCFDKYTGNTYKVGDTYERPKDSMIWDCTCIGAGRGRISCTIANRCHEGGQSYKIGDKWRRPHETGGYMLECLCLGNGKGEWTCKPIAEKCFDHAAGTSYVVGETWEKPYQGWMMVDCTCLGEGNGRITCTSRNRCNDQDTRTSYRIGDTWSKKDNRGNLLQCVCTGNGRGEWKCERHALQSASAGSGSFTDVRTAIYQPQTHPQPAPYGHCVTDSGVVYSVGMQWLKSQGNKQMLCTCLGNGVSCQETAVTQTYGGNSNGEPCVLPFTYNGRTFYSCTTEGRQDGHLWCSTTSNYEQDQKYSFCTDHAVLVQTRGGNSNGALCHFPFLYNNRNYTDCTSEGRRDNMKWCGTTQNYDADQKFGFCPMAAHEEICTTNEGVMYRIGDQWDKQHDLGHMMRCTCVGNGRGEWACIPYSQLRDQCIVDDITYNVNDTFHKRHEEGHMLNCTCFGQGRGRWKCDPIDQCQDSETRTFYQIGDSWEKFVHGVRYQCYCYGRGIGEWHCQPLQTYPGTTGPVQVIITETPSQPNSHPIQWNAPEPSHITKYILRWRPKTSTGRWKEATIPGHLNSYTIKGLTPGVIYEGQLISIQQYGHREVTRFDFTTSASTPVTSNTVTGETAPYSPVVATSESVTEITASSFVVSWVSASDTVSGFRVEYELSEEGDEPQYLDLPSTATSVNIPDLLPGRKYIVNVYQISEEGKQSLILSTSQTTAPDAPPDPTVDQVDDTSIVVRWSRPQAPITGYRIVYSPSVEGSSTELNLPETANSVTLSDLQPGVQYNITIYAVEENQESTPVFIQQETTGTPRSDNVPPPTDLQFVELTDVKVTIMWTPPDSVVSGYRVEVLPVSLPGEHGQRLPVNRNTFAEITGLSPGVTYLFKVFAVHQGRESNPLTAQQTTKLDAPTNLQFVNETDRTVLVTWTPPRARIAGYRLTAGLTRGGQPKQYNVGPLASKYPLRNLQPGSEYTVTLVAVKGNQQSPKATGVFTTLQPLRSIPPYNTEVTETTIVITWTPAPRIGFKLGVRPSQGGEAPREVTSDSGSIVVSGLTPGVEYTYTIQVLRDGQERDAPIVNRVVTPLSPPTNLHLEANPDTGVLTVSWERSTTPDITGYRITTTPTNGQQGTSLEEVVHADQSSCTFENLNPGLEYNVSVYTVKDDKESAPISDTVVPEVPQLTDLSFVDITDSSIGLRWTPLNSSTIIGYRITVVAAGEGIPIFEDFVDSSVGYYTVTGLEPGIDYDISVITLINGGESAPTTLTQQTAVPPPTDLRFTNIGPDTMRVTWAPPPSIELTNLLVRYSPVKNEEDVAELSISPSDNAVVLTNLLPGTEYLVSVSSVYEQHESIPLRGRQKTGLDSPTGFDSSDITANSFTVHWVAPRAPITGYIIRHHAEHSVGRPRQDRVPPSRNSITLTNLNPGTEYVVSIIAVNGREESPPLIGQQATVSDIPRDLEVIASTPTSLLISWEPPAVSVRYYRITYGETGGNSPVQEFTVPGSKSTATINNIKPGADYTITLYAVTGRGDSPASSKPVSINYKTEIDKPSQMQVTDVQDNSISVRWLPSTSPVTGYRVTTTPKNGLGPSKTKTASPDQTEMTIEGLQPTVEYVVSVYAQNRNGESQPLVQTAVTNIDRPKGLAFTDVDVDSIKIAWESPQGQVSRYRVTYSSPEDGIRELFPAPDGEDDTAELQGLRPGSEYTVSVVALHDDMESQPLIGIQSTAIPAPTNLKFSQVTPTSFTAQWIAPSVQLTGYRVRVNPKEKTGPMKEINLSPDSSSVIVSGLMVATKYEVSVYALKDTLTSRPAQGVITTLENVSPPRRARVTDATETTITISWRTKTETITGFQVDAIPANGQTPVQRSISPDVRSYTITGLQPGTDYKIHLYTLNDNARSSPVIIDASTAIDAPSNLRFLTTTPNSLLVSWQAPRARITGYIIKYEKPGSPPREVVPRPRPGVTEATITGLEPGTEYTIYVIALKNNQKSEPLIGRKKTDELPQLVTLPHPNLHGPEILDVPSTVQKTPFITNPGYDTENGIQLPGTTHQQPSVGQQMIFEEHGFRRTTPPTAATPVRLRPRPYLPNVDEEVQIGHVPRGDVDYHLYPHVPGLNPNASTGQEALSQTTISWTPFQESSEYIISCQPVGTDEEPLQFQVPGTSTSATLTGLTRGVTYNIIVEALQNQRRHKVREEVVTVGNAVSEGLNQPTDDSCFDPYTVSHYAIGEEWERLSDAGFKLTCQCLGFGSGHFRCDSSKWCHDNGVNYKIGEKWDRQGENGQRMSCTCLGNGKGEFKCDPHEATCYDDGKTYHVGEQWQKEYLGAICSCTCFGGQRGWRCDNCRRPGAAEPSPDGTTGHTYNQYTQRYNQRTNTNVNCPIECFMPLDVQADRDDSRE
T2 sequence (P02751 32-2477): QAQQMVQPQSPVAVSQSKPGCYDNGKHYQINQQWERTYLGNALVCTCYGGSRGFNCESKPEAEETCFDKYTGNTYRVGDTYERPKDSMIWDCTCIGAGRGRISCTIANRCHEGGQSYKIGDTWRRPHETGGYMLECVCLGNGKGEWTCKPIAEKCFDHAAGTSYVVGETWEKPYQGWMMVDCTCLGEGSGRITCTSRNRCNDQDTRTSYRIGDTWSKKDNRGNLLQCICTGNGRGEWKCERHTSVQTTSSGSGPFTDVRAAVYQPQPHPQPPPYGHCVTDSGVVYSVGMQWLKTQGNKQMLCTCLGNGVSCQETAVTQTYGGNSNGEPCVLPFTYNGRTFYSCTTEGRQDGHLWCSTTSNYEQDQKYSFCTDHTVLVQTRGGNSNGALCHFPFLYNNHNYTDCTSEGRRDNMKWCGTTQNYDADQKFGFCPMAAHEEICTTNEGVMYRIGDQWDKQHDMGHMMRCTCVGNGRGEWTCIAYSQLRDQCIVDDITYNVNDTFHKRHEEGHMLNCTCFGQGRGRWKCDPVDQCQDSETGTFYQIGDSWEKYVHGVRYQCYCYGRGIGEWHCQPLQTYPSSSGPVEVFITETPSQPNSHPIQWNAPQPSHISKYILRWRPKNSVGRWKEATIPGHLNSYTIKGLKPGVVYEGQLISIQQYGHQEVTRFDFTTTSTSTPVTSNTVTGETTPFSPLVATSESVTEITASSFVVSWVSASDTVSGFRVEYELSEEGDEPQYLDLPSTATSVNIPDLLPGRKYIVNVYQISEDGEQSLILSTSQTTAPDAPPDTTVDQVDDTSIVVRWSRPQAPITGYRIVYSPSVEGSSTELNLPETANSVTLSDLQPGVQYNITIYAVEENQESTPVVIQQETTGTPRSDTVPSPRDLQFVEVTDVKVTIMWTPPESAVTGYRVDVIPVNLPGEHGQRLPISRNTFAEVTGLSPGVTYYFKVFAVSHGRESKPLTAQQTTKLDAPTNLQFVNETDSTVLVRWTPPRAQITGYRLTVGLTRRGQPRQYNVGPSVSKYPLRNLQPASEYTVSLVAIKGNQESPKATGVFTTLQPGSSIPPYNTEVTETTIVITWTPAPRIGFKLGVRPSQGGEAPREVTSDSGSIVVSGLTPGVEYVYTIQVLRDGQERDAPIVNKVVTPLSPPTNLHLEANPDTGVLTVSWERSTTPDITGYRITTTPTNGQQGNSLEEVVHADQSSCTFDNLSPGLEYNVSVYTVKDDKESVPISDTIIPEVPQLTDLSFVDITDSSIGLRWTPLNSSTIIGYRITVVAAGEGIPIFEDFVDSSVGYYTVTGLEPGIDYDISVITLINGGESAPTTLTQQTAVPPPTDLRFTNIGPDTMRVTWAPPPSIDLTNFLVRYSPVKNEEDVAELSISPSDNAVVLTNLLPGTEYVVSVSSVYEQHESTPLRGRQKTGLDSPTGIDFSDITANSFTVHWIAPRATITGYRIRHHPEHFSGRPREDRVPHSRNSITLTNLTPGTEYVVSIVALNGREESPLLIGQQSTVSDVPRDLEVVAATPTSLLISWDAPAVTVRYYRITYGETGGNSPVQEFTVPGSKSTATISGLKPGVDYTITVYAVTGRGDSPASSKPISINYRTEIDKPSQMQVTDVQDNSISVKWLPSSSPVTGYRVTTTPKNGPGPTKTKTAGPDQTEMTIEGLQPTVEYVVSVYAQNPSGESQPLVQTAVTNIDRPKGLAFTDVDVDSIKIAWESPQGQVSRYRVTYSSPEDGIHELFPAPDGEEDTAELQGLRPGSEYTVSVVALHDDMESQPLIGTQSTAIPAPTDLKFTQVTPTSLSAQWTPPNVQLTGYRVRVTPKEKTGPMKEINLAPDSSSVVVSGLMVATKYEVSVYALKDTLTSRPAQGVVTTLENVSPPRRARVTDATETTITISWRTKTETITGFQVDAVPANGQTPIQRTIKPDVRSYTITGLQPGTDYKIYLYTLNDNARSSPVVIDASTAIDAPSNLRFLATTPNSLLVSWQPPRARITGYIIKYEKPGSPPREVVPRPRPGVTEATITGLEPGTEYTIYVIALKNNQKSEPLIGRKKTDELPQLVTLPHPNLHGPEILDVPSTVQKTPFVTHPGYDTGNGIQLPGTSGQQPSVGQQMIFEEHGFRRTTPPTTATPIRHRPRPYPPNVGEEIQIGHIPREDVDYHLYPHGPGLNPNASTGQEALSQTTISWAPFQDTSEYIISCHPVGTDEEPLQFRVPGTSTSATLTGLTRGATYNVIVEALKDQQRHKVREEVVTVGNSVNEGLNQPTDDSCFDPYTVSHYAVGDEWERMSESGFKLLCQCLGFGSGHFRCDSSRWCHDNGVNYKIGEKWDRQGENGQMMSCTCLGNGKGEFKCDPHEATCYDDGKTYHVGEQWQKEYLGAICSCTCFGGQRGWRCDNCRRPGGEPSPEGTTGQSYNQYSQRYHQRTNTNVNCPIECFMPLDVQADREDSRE

B1: NJB2 (VHH)
VHH: QVQLVETGGGLVQAGGSLRLSCAASGSTFSHNAGGWYRQAPEKQRELVAGISSDGNINYADSVKDRFTISRDNASNTMYLQMNNLKPEDTAVYVCNIRGSYGNTYYSRWGQGTQVTVSS
modifications: site-specifically labelled via sortagging (LPETG tag) with biotin, Texas Red or 64Cu in the staining and imaging assays
notes: After sortagging the C-terminus differs (label in place of the residues after LPET); also called VHH NJB2; VHH-NJB2
[1]
  binding result: binds
[2]
  binding result: binds
[3]
  Kd: ~4 nM
